# Data taken from patent publication US12594347B2, “Nanoparticulate drug delivery systems” (Duke University, priority 2018, dated 2026).
# Where two headings read alike, the source gives them in different places.
# Columns and labels:
# [1] = Biodistribution in C26 tumor-bearing mice; type: in vivo, Balb/C mice; details: mouse, in vivo
# Method: Cell culture and tumor inoculation.
# Biodistribution. […] At 2 and 24 h after injection, tissues (tumor, muscle, heart, lung, liver, spleen and kidney) were removed, weighed and suspended in 1.0 mL acidified isopropanol (75 mM HCl, 10% water, 90% isopropanol). Tissues were then homogenized using 2 mm diameter zirconia beads and a MiniBeadbeater-1TM (Biospec; Bartlesville, OK) for 2 min at 5,000 beats per minute and were incubated overnight at 4° C. in the dark. The isopropanol extracts were then vortexed, and centrifuged (14,000 RPM, 10 min, 4° C.) and 125 uL of the supernatant was loaded onto a black 96-well plate (BD Biosciences) in duplicate. […] To correct for background tissue fluorescence, tissues were removed from three untreated control mice and were processed similarly. For each tissue, a background (counts per mg tissue) curve was created using 2-fold dilutions of the processed tissues in acidified isopropanol.
# Canine pharmacokinetics = assay: Canine pharmacokinetics
# From the text: Canine pharmacokinetics and toxicities. […] All procedures and protocols involving care, handling, and dosing for this study were reviewed and approved by the Institutional Animal Care and Use Committee (IACUC) at North Carolina State University College of Veterinary Medicine, which is an AAALAC-accredited facility. The animals' health status were monitored daily by the animal technicians and veterinary staff, paying particular attention for signs of gastrointestinal toxicities including vomiting, diarrhea, lethargy, and inappetence. If noted, supportive care was provided. […] 2 mL blood samples were drawn from jugular vein at 40 s, 15 and 30 min, 2, 4, 8, 24, 48, and 72 h after injection, diluted into 400 μL heparinized PBS (1000 UmL^−1). Sample processing and analysis were performed as with murine pharmacokinetics studies.
# [2] = tested on: C26 murine colon adenocarcinoma cells
# Method: C26 murine colon adenocarcinoma cells were seeded (5000 cells/well) in a 96-well plate. After 24 h, cells were treated in triplicate with 3-fold serial dilutions of drugs beginning with 100 uM. After 72 h incubation, 20 μL of CellTiter 96 AQueous™ (Promega; Madison, WI) 3-(4,5-dimethlthiazol-2-yl)-5-(3-carboxymethoxphenyl)-2-(4-sulfophenyl)-2H-tetrazolium (MTS) reagent was added to each well followed by 3 h incubation at 37° C. The absorbance at 490 nm was determined using a Victor3™ microplate reader (Perkin Elmer; Waltham, MA). For each plate, blank wells (with no cells) were defined as 0% viability and wells treated with PBS were defined as 100% viability. The background absorbance at 490 nm was corrected by subtracting the average absorbance of the blank wells from each well. The percent viability was defined as the absorbance of each well normalized to the absorbance of wells treated with PBS. Inhibitory concentration (IC 50) values were calculated using a four-parameter logistic fit in the Prism program (GraphPad Software, San Diego, CA, USA).
# [3] = tested on: MDA-MB-231 human breast cancer cells; assay: In vitro cytotoxicity, MTS assay, MDA-MB-231 cells; type: cell-based; details: 72 h incubation, read-out: half-maximal inhibitory concentration (IC50)
# Method: In vitro cytotoxicity of the ABDN-CP-PTX versus that of naked CP-PTX and free PTX was determined using the […] MTS assay. […] The MTS assay was repeated twice to ensure validity of results.
# [4] = target: T1, mouse serum albumin (MSA) (Mus musculus, UniProt P07724); assay: Isothermal titration calorimetry (Nano ITC) for PTX conjugates with mouse albumin; type: binding
# Method: (§1) For PTX conjugates, ITC was conducted using a Nano ITC system (TA Instruments, Utah, USA). Aliquots of 10 uL of 500 uM albumin in PBS were titrated via a 250 μl syringe into CP-PTX at 50 uM concentration, stirring at 300 rpm at 37° C. For background correction, PBS (in the cell) was titrated with albumin (in the syringe) at the same concentrations and conditions. Background was subtracted from the final curves and the binding and thermodynamic parameters binding constant (KD), number of binding sites (n), and enthalpy (ΔH)—were computed by non-linear fitting to an independent-binding site model using TA Instruments NanoAnalyze software.
# [5] = Dynamic and static light scattering; type: physicochemical; details: for % Intensity / Polydispersity / Rh: DLS
# Method: Light Scattering. Dynamic and static light scattering measurements were performed using an ALV/CGS-3 goniometer system (Germany). […] To study the effect of albumin binding on micellar self-assembly, mouse albumin was added to the samples at 1:1 albumin-CP molar ratio in PBS. Measurements were obtained at 25° C. and 37° C. for angles between 30-150° at 5° increments with each angle consisting of 3 runs and 10 s each at each run. Hydrodynamic radius (Rh) was determined by dynamic light scattering. The radius of gyration (Rg) and the average molecular weight of the particle (MW) were calculated from the slope and intercept of a partial Zimm plot, respectively, using ALV/Dynamic and Static FIT and PLOT software and according. The micelle aggregation number Nagg, or the number of polypeptide chains per nanoparticle, was calculated by dividing the micelle molecular weight by the molecular weight of the polypeptide monomer.
# Size and morphology of CP conjugated micelles. The radius and the aggregation number of the self-assembled micelles were determined, in the presence and absence of albumin, by dynamic and static light scattering at 37° C. using an ALV/CGS-3 goniometer system (Germany). Freeze fracture electron microscopy was performed to visualize the micelles and estimate their radius and morphology.
# [6] = target: T2, human serum albumin (HSA) (Homo sapiens, UniProt P02768); assay: Isothermal titration calorimetry (Nano ITC) for PTX conjugates with human albumin; type: binding
# Method: as §1
# [7] = Thermal turbidimetry (transition temperature); type: physicochemical
# Method: Thermal Turbidimetry. Thermal profiles of CPs and CP conjugates were determined by measuring the transition temperature (Tt) over a range of concentrations (5, 10, 25, 50, and 100 uM) in PBS, FBS, and MS using a Cary UV-visible spectrophotometer equipped with temperature controller (Agilent Technologies, CA, USA). […] The transition temperature was defined as the maximum first derivative of the optical density.
# [8] = target: T1, mouse serum albumin (MSA); assay: Isothermal titration calorimetry (VP-ITC) of polypeptide carriers and DOX micelles with mouse albumin; type: binding; details: PBS pH 7.4, 37° C.
# Method: (§2) Interaction with albumin. Interaction of CP monomers and micelles with human and mouse albumin was analyzed by isothermal titration calorimetry (ITC).
# [9] = target: T2, human serum albumin (HSA); assay: Isothermal titration calorimetry (VP-ITC) of polypeptide carriers with human albumin; type: binding; details: PBS pH 7.4, 37° C.
# Method: as §2
# [10] = Pharmacokinetics of Alexa488-labeled ABD-ELP and ELP monomers in mice; type: in vivo; details: tail vein, Balb/C mice, two-compartment model
# Method: A single cysteine was added to the C-terminus of polypeptides and was reacted with Alexa 488-maleimide (Life Technologies, Carlsbad, CA, USA). 50 uL Alexa 488-maleimide at 27.75 uM in DMSO was added to the polypeptide solution in the reaction (250 uM) and was allowed to stir for 3 hr at room temperature in the dark. Unbound Alexa488 was then removed by Amicon ultra-15 centrifugal filter units (MWCO 10 kDa, Millipore) and in PBS. Alexa488 concentration and conjugation efficiency was then determined.
# 125 uL of the supernatant was loaded onto a black 96-well plate (BD Biosciences) in duplicate. Free Alexa488-maleimide solutions at various known concentrations were prepared in heparinized PBS and were loaded onto the plate as standards. Alexa488 fluorescence was measured on a Wallac Victor3 TM microplate reader (Perkin Elmer; Waltham, MA).
# [11] = dogs, cephalic vein, 27 DOX Equiv/m^−2 BSA or 0.9 mg DOX Equiv/kg BW
# T1 sequence (P07724 25-608): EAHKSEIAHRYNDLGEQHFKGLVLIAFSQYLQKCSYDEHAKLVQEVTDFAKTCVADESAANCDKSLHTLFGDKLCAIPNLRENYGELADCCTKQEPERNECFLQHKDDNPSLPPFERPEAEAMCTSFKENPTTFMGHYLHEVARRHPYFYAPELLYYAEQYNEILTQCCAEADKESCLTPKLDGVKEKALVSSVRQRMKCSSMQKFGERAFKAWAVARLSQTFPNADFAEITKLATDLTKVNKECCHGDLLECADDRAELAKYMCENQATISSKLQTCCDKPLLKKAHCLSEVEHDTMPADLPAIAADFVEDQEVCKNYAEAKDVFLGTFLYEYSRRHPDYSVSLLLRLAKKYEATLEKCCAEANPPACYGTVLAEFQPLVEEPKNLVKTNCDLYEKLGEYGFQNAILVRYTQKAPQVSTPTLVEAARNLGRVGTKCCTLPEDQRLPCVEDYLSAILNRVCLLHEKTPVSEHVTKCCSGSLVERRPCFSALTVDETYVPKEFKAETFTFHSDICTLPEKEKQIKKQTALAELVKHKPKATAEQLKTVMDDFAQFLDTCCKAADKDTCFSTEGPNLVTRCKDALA
molecule,measurement,setting,value
"COc1cccc2c1C(=O)c1c(O)c3c(c(O)c1C2=O)C[C@@](O)(C(=O)CO)C[C@@H]3O[C@H]1C[C@H](N)[C@H](O)[C@H](C)O1 [DOX, doxorubicin, reference compound]",accumulation in the spleen (in words),[1],lower accumulation in the spleen than CP-DOX micelles
same,"distribution to the heart, lung, kidneys, and muscle (in words)",[1],greater extent
same,Apparent distribution volume VD,"Canine pharmacokinetics; dog, in vivo",3.85 ± 0.26 mL/g
same,Plasma clearance CL,"Canine pharmacokinetics; dog, in vivo",0.7875 ± 0.0951 mL/h/g
same,Distribution half-life β t1/2,Canine pharmacokinetics; [11],3.6 ± 0.5 min
same,Elimination rate constant kg,Canine pharmacokinetics; [11],0.96 ± 0.13 h⁻¹
same,Plasma to tissue rate constant kpt,Canine pharmacokinetics; [11],8.51 ± 1.20 h⁻¹
same,Elimination half-life α t1/2,"Canine pharmacokinetics; dogs, cephalic vein, 27 DOX Equiv/m^−2 BSA or 0.9 mg DOX Equiv/kg BW, plasma DOX",2.9 ± 0.8 h
same,IC50,[2],0.09 µM
"CC(=O)O[C@H]1C(=O)[C@@]2(C)[C@H]([C@H](OC(=O)c3ccccc3)[C@]3(O)C[C@H](OC(=O)[C@H](O)[C@@H](NC(=O)c4ccccc4)c4ccccc4)C(C)=C1C3(C)C)[C@]1(OC(C)=O)CO[C@@H]1C[C@@H]2O [free PTX, paclitaxel, reference compound]",IC50,"[3]; MDA-MB-231, printed MDA-MB-213 human breast cancer cells",0.0098 µM
ABD-CP-PTX (conjugate) LAEAKVLANRELDKYGVSDYYKNLINNAKTVEGVKALIDEILAALPVPGAGVPGAGVPGAGVPGAGVPGAGVPGAGVPGAGVPGAGVPGAGVPGAGVPGAGVPGAGVPGAGVPGAGVPGAGVPGAGVPGAGVPGAGVPGAGVPGAGVPGAGVPGAGVPGAGVPGAGVPGAGVPGAGVPGAGVPGAGVPGAGVPGAGVPGAGVPGAGVPGAGVPGAGVPGAGVPGAGVPGAGVPGAGVPGAGVPGAGVPGAGVPGAGVPGAGVPGAGVPGAGVPGAGVPGAGVPGAGVPGAGVPGAGVPGAGVPGAGVPGAGVPGAGVPGAGVPGAGVPGAGVPGAGVPGAGVPGAGVPGAGVPGAGVPGAGVPGAGVPGAGVPGAGVPGAGVPGAGVPGAGVPGAGVPGAGVPGAGVPGAGVPGAGVPGAGVPGAGVPGAGVPGAGVPGAGVPGAGVPGAGVPGAGVPGAGVPGAGVPGAGVPGAGVPGAGVPGAGVPGAGVPGAGVPGAGVPGAGVPGAGVPGAGVPGAGVPGAGVPGAGVPGAGVPGAGVPGAGVPGAGVPGAGVPGAGVPGAGVPGAGVPGAGVPGAGVPGAGVPGAGVPGAGVPGAGVPGAGVPGAGVPGAGVPGAGVPGAGVPGAGVPGAGVPGAGVPGAGVPGAGVPGAGVPGAGVPGAGVPGAGVPGAGVPGAGVPGAGVPGAGVPGAGVPGAGVPGAGVPGAGVPGAGVPGAGVPGAGVPGAGVPGAGVPGAGVPGAGVPGAGVPGAGVPGAGCGGCGGCGGCGGCGGCGGCGGCGG,IC50,[3]; printed MDA-MB-213 human breast cancer cells,0.0109 µM
same,n (number of binding sites),[4],0.95
same,% Intensity,[5]; Concentration 20 μM,95.4%
same,Polydispersity,[5]; Concentration 20 μM,24.6%
same,Rh,[5]; Concentration 20 μM,39.6 ± 2.2 nm
same,% Intensity,[5]; Concentration 40 μM,96.6%
same,Polydispersity,[5]; Concentration 40 μM,26.6%
same,Rh,[5]; Concentration 40 μM,44.1 ± 4.7 nm
same,Nagg,"[5]; SLS, 20 μM concentration",64.5
same,RG,"[5]; SLS, 20 μM concentration",42.83 nm
same,aggregation (in words),[5]; body temperature (37° C.),no aggregates
same,n (number of binding sites),[6],0.92
ABDN-ELP: ELP scaffold with albumin binding domain ABDN (SEQ ID NO:6) fused to the N-terminus and C-terminal cysteine sequence (protein) LAEAKVLANRELDKYGVSDYYKNLINNAKTVEGVKALIDEILAALPVPGAGVPGAGVPGAGVPGAGVPGAGVPGAGVPGAGVPGAGVPGAGVPGAGVPGAGVPGAGVPGAGVPGAGVPGAGVPGAGVPGAGVPGAGVPGAGVPGAGVPGAGVPGAGVPGAGVPGAGVPGAGVPGAGVPGAGVPGAGVPGAGVPGAGVPGAGVPGAGVPGAGVPGAGVPGAGVPGAGVPGAGVPGAGVPGAGVPGAGVPGAGVPGAGVPGAGVPGAGVPGAGVPGAGVPGAGVPGAGVPGAGVPGAGVPGAGVPGAGVPGAGVPGAGVPGAGVPGAGVPGAGVPGAGVPGAGVPGAGVPGAGVPGAGVPGAGVPGAGVPGAGVPGAGVPGAGVPGAGVPGAGVPGAGVPGAGVPGAGVPGAGVPGAGVPGAGVPGAGVPGAGVPGAGVPGAGVPGAGVPGAGVPGAGVPGAGVPGAGVPGAGVPGAGVPGAGVPGAGVPGAGVPGAGVPGAGVPGAGVPGAGVPGAGVPGAGVPGAGVPGAGVPGAGVPGAGVPGAGVPGAGVPGAGVPGAGVPGAGVPGAGVPGAGVPGAGVPGAGVPGAGVPGAGVPGAGVPGAGVPGAGVPGAGVPGAGVPGAGVPGAGVPGAGVPGAGVPGAGVPGAGVPGAGVPGAGVPGAGVPGAGVPGAGVPGAGVPGAGVPGAGVPGAGVPGAGVPGAGVPGAGVPGAGVPGAGVPGAGVPGAGVPGAGVPGAGVPGAGVPGAGVPGAGVPGAGVPGAGVPGAGVPGAGCGGCGGCGGCGGCGGCGGCGGCGG,n (number of binding sites),[4]; listed as ABD-CP,1.05
same,transition temperature,[7]; 100 μM concentration in PBS,57 °C
same,Tt,[7]; ABDN-CP fusions for conjugation with Paclitaxel,48 °C
same,binding stoichiometry N,[8],1.12±0.00
same,binding stoichiometry N,[9],1.04±0.00
same,n (number of binding sites),[6]; listed as ABD-CP,0.95
same,Apparent distribution volume VD,[10],0.27 ± 0.01 mL/g
same,Area under the curve AUC,[10],80.2 ± 1.9 µM·h
same,Distribution half-life β t1/2,[10],1.24 ± 0.295 h
same,Elimination half-life α t1/2,[10],16.8 ± 0.5 h
same,Elimination rate constant kg,[10],0.08 ± 0.00 h⁻¹
same,Plasma clearance CL,[10],0.012 ± 0.000 mL/h/g
same,Plasma to tissue rate constant kpt,[10],0.21 ± 0.06 h⁻¹
same,Tissue to plasma rate constant ktp,[10],0.31 ± 0.07 h⁻¹
same,Elimination half-life α t1/2,[10]; listed as ABDN-CP,17 h
